Data on 14 molecules can be found in US20230174596A1 (published 2023).

Substitutions are numbered along the chain they refer to.

T1: hVEGF-A Q89A (human, UniProt P15692 34-135)
T1 chain: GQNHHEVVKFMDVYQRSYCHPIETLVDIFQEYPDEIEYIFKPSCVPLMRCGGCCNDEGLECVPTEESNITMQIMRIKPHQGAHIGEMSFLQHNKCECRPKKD

T2: hVEGF-A Y21A (human, UniProt P15692 34-135)
T2 chain: T1 chain with Y14A, A82Q

T3: hVEGF-A K48A (human, UniProt P15692 34-135)
T3 chain: T1 chain with K41A, A82Q

T4: rat VEGF-A (rat, UniProt P16612-2 27-190, limits assumed)
T4 sequence (looked up): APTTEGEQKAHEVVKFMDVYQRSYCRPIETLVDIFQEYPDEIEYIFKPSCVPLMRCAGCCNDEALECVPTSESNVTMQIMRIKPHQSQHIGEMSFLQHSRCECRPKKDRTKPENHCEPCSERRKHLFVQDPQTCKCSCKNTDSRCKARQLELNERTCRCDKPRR

T5: human VEGF-A (human, UniProt P15692-4 34-135, limits assumed)
T5 sequence (looked up): T1 chain with A82Q

T6: mVEGF (mouse, UniProt Q00731-2 27-190, limits assumed)
T6 sequence (looked up): T4 sequence (looked up) with A10S, V14I, V75I

T7: hVEGF-A (8-109) (human, UniProt P15692 214-315)
T7 construct: residue numbers count on mature VEGF-A; dimer
T7 sequence (looked up): T1 chain with A82Q

T8: human VEGF-A (human), P15692
T8 chain: T1 chain with A82Q

The target of one assay is T1, hVEGF-A Q89A. Description: SPR.
Settings: not given
On to GCNIMLPFWGCGRDFECLAGCVCQYYQSCG (designed binder) [VEGF_CKP9.54.90], for which the Kd (usually the free concentration of one partner at which half of the binding sites on the other are occupied at equilibrium, for simple one-to-one binding) was determined as 0.0088 µM.
GCNIMLPFWGCKQDSDCLAGCVCQYYQSCG (designed binder, also called EM54) [VEGF_CKP9.54]: the affinity, expressed as Kd, was 1.88 µM.
With GCDVMQPYWGCKQDSDCLAGCVCHWYNSCG (designed binder, also called EM63) [VEGF_CKP9.63], the equilibrium dissociation constant (Kd) worked out at 2 µM.
GCDVMQPYWGCGPDIDCLAGCVCHWYNSCG (designed binder, also called L2.9.63.12) [VEGF_CKP9.63.12] returned a Kd of 0.0365 µM.

The next assay deals with T2, hVEGF-A Y21A. Description: SPR.
Settings: not given
As to GCNIMLPFWGCGRDFECLAGCVCQYYQSCG (designed binder) [VEGF_CKP9.54.90], the equilibrium dissociation constant (Kd) came out at 0.0035 µM.
Molecule GCNIMLPFWGCKQDSDCLAGCVCQYYQSCG (designed binder, also called EM54) [VEGF_CKP9.54] came in with a Kd of 0.317 µM.
In turn, GCDVMQPYWGCKQDSDCLAGCVCHWYNSCG (designed binder, also called EM63) [VEGF_CKP9.63] gave a dissociation constant (Kd) of 0.585 µM.
On the same count and under the same terms, for GCDVMQPYWGCGPDIDCLAGCVCHWYNSCG (designed binder, also called L2.9.63.12) [VEGF_CKP9.63.12] the value was 0.00984 µM.

The next assay concerns the target T3, hVEGF-A K48A. Description: SPR.
Settings: not given
For the molecule GCNIMLPFWGCGRDFECLAGCVCQYYQSCG (designed binder) [VEGF_CKP9.54.90], the affinity, expressed as Kd, was 0.00019 µM.
With GCNIMLPFWGCKQDSDCLAGCVCQYYQSCG (designed binder, also called EM54) [VEGF_CKP9.54], binding was characterised by a dissociation constant (Kd) of 0.022 µM.
GCDVMQPYWGCKQDSDCLAGCVCHWYNSCG (designed binder, also called EM63) [VEGF_CKP9.63]: binding was put at a Kd of 0.0284 µM.
In turn, GCDVMQPYWGCGPDIDCLAGCVCHWYNSCG (designed binder, also called L2.9.63.12) [VEGF_CKP9.63.12] registered an equilibrium dissociation constant (Kd) of 0.00033 µM.

In the next assay the target is T4, rat VEGF-A. Briefly: cell-based or functional assay.
Settings: not given
On to GCTTPWPPHEIMCKQDSDCLAGCVCGPNGFCG (designed binder) [VEGF_CKP12], for which the “Cellular Assay IC50, rVEGF (50 ng/ml)” value came out at 1220 µM.
On to GCRDLDVKWDCKQDSDCLAGCFCQYYSSCG (designed binder) [VEGF_CKP10], for which the “Cellular Assay IC50, rVEGF (50 ng/ml)” value came to 18 µM.
Take GCPTTRFKQYCKQDSDCLAGCVCGPNGFCG (designed binder) [VEGF_CKP6]: the “Cellular Assay IC50, rVEGF (50 ng/ml)” value came out at 711 µM.
As to GCQDPTFNWALYCKQDSDCLAGCVCQMYQSCG (designed binder) [VEGF_CKP7], the “Cellular Assay IC50, rVEGF (50 ng/ml)” value was found to be 7 µM.
Regarding GCQLMQPFWGCKQDSDCLAGCVCHWYQSCG (designed binder) [VEGF_CKP9], the “Cellular Assay IC50, rVEGF (50 ng/ml)” value turned out to be 1 µM.

The next assay addresses T5, human VEGF-A. Description: cell-based or functional assay.
Settings: not given
Consider GCTTPWPPHEIMCKQDSDCLAGCVCGPNGFCG (designed binder) [VEGF_CKP12], for which the “Cellular Assay IC50, hVEGF-A (25 ng/ml)” value was 102 µM.
On to GCRDLDVKWDCKQDSDCLAGCFCQYYSSCG (designed binder) [VEGF_CKP10], for which the “Cellular Assay IC50, hVEGF-A (25 ng/ml)” value amounted to 45 µM.
Still for that read-out and setting: for GCPTTRFKQYCKQDSDCLAGCVCGPNGFCG (designed binder) [VEGF_CKP6] the value was 47 µM.
Still for that read-out and setting: for GCQDPTFNWALYCKQDSDCLAGCVCQMYQSCG (designed binder) [VEGF_CKP7] the value was 18 µM; for GCQLMQPFWGCKQDSDCLAGCVCHWYQSCG (designed binder) [VEGF_CKP9], 12 µM.

A further assay deals with T6, mVEGF. Briefly: cell-based or functional assay.
Settings: not given
Turning to GCTTPWPPHEIMCKQDSDCLAGCVCGPNGFCG (designed binder) [VEGF_CKP12], the “Cellular Assay IC50, mVEGF (50 ng/ml)” value is 243 µM.
Same read-out and setting: for GCPTTRFKQYCKQDSDCLAGCVCGPNGFCG (designed binder) [VEGF_CKP6] the value was 169 µM.
As for GCQDPTFNWALYCKQDSDCLAGCVCQMYQSCG (designed binder) [VEGF_CKP7], the “Cellular Assay IC50, mVEGF (50 ng/ml)” value is 39 µM.
Regarding GCQLMQPFWGCKQDSDCLAGCVCHWYQSCG (designed binder) [VEGF_CKP9], the “Cellular Assay IC50, mVEGF (50 ng/ml)” value amounted to 10 µM.

The target of another assay is T7, hVEGF-A (8-109). Description: spot phage ELISA.
Settings: not given
In general terms: An ELISA detects its analyte on a solid surface through an enzyme-linked reagent.
In turn, GCTTPWPPHEIMCKQDSDCLAGCVCGPNGFCG (designed binder) [VEGF_CKP12] showed an ELISA of 3.5 and a S/N of 55.2.
Molecule GCRDLDVKWDCKQDSDCLAGCFCQYYSSCG (designed binder) [VEGF_CKP10] returned an ELISA of 3.2 and a S/N of 43.7.
As to GCPTTRFKQYCKQDSDCLAGCVCGPNGFCG (designed binder) [VEGF_CKP6], the ELISA worked out at 3.5 and the S/N was 51.9.
The molecule GCQDPTFNWALYCKQDSDCLAGCVCQMYQSCG (designed binder) [VEGF_CKP7] yielded an ELISA of 3.4 and a S/N of 54.5.
In the same order, the values of GCQLMQPFWGCKQDSDCLAGCVCHWYQSCG (designed binder) [VEGF_CKP9] are 0.4 and 7.4.

Staying with this assay, now noted: record 2.
As to GCQDPTFNWALYCKQDSDCLAGCVCQMYQSCG (designed binder) [VEGF_CKP7], the ELISA was found to be 0.1 and the S/N was 1.3.
In turn, GCQLMQPFWGCKQDSDCLAGCVCHWYQSCG (designed binder) [VEGF_CKP9] returned an ELISA of 0.9 and a S/N of 11.6.

Still in this assay, the particulars now being: record 3.
As to GCQLMQPFWGCKQDSDCLAGCVCHWYQSCG (designed binder) [VEGF_CKP9], the ELISA came out at 3.3 and the S/N was 36.

The target in another assay is T7, hVEGF-A (8-109). Description: SPR.
Settings: not given
The molecule GCDVMQPYWGCGENFLCLAGCVCHWYNSCG (designed binder, also called L2.9.63.1) [VEGF_CKP9.63.1] yielded a Kd of 0.0058 µM.
Take GCDVMQPYWGCGESLSCLAGCVCHWYNSCG (designed binder, also called L2.9.63.69) [VEGF_CKP9.63.69]: the dissociation constant (Kd) turned out to be 0.0069 µM.
Molecule GCDVMQPYWGCGRDMDCLAGCVCHWYNSCG (designed binder, also called L2.9.63.27) [VEGF_CKP9.63.27] gave a Kd of 0.0014 µM.
For the molecule GCDVMQPYWGCEMDFDCLAGCVCHWYNSCG (designed binder, also called L2.9.63.44) [VEGF_CKP9.63.44], the Kd stood at 0.0012 µM.

A further assay has as its target T8, human VEGF-A (human), P15692. Briefly: SPR.
Settings: not given
The molecule GCNIMLPFWGCGRDFECLAGCVCQYYQSCG (designed binder, modifications not checked) [VEGF_CKP9.54.90-Alkyn] registered a Kd of 0.00049 µM.
